# Source: the domain aggregation screens of Martell et al. (2025)
# Experiment: soluble fraction after stress (log2 fold change); higher = more stays soluble; pooled small domains, quantitative proteomics
# Conditions: stress: 50 degC
# Procedure, shortened: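 Custom libraries of small protein domains were pooled and measured in a high-throughput format, with quantitative proteomics as the read-out. Each library was stressed at 50°C. The value is the log2 fold change in the amount of each protein that stays soluble after stress, used as a measure of aggregation propensity; higher values mean more of the protein stays soluble.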
row,Sequence,soluble fraction (log2)
1,HMSEKLTLEAANEAAGMRIDKWLAMQLPELSRSRIEALISGGGVVVNGKNPSKSLKLKGGEQIELEIPE,0.0725
2,HMSELLIVGSEQDNTRLDRFLADQYEEYTRSFLQKLIDQGNVSINGISVKKSGIKLKENDEIAVTLPEPQ,0.389
3,HMSELPLTQKVAIVMVALGEEASGEVMKHLSDYEIEEITQAIAGLKNISVELMDQILEEYEQHLIAG,-0.459
4,HMSELTKEIGKRIHDFRKSRGLNQEELARLIYKSKATLSKYEKGEIAIDLDTLKQLALALHVRMEQLLPPT,-0.0472
5,HMSENDTILAKFVSVMGNKNLELVIFPDIAYLKGQVSNPEDKTKAETVAQSLLGGKPLVSLIEFE,0.218
6,HMSENIQLQKEQLYQLIAQLPEQRQKIFRLHKIDNYSYQEISDFTGLSRKTIANHIYLAHQFILKKVKK,-3.25
7,HMSENKIMEIVQDLAREKSVILISHRLANVTAADKILYMEQGKIAESGTHEQLMAQNKAYAALFNKQQEL,-0.11
8,HMSENLESEFFGIVVITQTLLQKELRDKPMTVELIRKTVEDVMSKHYSDSSVDKAKVEEELIRRFSTW,-0.164
9,HMSENMSQDLAQWYRLQQALHPNLDAPELWATDLTSQQRTVRDQLIQQWAQEKRDSLWSEISGD,0.0433
10,HMSEPFDMAVPLTSGGRRLDQVLAELLPQHSRNRLQGWIRDGLLTLDGVTVTEPKRKLAGGEQLALLLP,-0.13
11,HMSEPTLESLRAEGAHHYDPARFHYLEVLARRMPGQHAAVQQVLASRLREAVAAYAGRRSLI,-0.126
12,HMSEQSEALRTGLDQLPINQRTALTLFHLHELNQSEVAKIMNISVGAVESLLFRGRQKMKQLLTSD,-0.725
13,HMSERIITFGEATREAMLEEMRADERVFVYGEDIAKQGGIFGQFAGMKDEFPERVLDTPISETALVGAG,0.0621
14,HMSERVVVPDLTGKDLVAAQSELREISLAGREEGPGDKVRRQFPVAGVKVPKDTVVILYTED,0.125
15,HMSESAGKALDILFYLARVEDEVSLARLSKETGMNKATALRYLAVLESWGVVEKRPSGWSLGLSLFELGSK,-2.13
16,HMSESGTFRAEAADAGRRLDVALAERLRLSRAAAQRLIAAGLVLVEGSPARKRQILHAGETVAWRAAPP,-0.127
17,HMSESLLTAAGFKTIAATTPEQKRHLEWLHPDQVTAVQLTGQHYYVYPDVAKSQLFVGTPKEYQAYLALRT,-0.414
18,HMSESLRDLVLSLIPEDGSTIGNRALITRLREDLPDLTDEDYHEVRDQLIAEGVLAKGRGQGGSVARANG,0.205
19,HMSETIVFGQQKAINTLSSEAGLSSAELNNYLKKRYQRPLFQLTVSEGADLIQGFQDGTLTKASITQYVSQ,-0.0548
20,HMSETQDQTTIEIEDMITVGTLAERLSIPVSTLIGELMKNGVMATVNEKIDFDTAQIIVGELKLPIELSKK,0.201
21,HMSEYEYALHEFGITKKQSQRIFDRLSIADLEERINAIQTTLKQRSDIDNPAAYAWTVLNAE,-0.207
22,HMSEYLDIHMAMEKLNRKEQLFVHLRFYEGLTQSEIAQRLFTSQVQISRLEKSVLEKMRQILSK,-1.34
23,HMSEYTRGELVSSLEAGEVAAVSIRPNRETPTGEAQIVLSDGQHRVLYVTDVREIEELVSSYGLNPQVEK,0.233
24,HMSFDNIKVGYISETAGYVKGISLADANEYAKLNPDTEFIFIDGDEKVRFLTINEVNGLTPKNLLRSDP,-0.23
25,HMSFGFFELKSSDTDKLFAYLNNNEHFGNIKEENGLVTAFLTSELDAQTLNKLLFDNGIIASHLVKRK,-0.51
26,HMSFMPDPSIHDAITYTVRSGDYLGKISTTFGVKVSDLQKWNSIKSNIIYPGQKLTVWVSSNKRESLQ,-1.31
27,HMSFPLKRGSKGNRVTQLQNALVKKFGASILPKYGVDGMFGKEVEAALVRAKLPTSINESTYNSFV,0.12
28,HMSFVAYEEEKAIGMVRLIGDGGMSFYIKDFAVLPGHQGKGVGQMLLMELQQYLLEHKPADWAVSLE,-0.329

row,Sequence,soluble fraction (log2)
1,HMSGAKLLAPVTGTLLRYTVAEGTKVSEGQTVIMLESMKMELEINAHKAGVIHFTAAAGAQVAEGDSLAEI,-0.52
2,HMSGDKKLQMNLILEFAQQNESFRTKDIEELLQIRSSRARKLISDLVTEGRLEALGENRNRRYQLI,-0.985
3,HMSGDYRALYSSLPPERASSVVDALNVAGIPYRIQDSTGAIMVPAEQIYDARIRLAGQGLGK,0.227
4,HMSGEPKNERQIEVPDVTKKSIREANNILTSEGLRLRIEGTGLAVSQKPAAGTMVEPDTIITVTFQAP,0.35
5,HMSGHEVMVQRITAIIAELYQYGFVSRKKMMDEFNISERTLYRDLNRLGDRIVPDGDGIYRLAPAYA,-1.55
6,HMSGHIPGIKIKGVIFFDKGSSSNHIIATTENNSNLKLRVGETVQGAVLKSIHPNHVIFFHHNQLIEVGIG,-2.21
7,HMSGKGEFDQLLRSGEYVQAFQRANANGNVTLRRQQLLNLARHQAASGVGSGAIESLSTIQRI,0.0926
8,HMSGKMTVPNVVGKTETEAKSALSAKGFTNVRTETVDSTEAAGTVVKQSLDADSVQDPKTEIVLSVSNG,0.608
9,HMSGKWKIRILWYIAEYEVQRFGELRRRLGDITQSTLTEQLRELEQDGFVSRYVYQEVPSKVEYSLTE,0.143
10,HMSGKWSILILHALEQGPKRFNVLHRELSGITQATLTKQLRQLEEDGIILRKAYPQIPPKVEYQLTEIG,-1.74
11,HMSGNPLDTYYSKWSAEIKKGSPNAVISKEGDKYYVSIPGENRMAIIYENPHLIRMVNATRNIHVE,-0.168
12,HMSGPSDRDLFDEALALLSGSGREPDYHEARIRLGTLVEQFPESKWAEGAKALLSMLDRVSALQV,0.246
13,HMSGPVITEERNIANALISGLANMKETPTREQVERKAQQIAELFGYTGDLRNIITEAMISVDT,0.059
14,HMSGRPPTYTAEERSAVIAAALSRPADLGLPFASWTLDRLVAYLGEKGIGMKRSRMSEVLLAEGLKW,-1.25
15,HMSGSGYAYVDKYGYSHVVKDYDTAKNYASDGNVYNYSGSHKGGYAYDADNYRVPLDLPGSKPYG,-0.0115
16,HMSGSIIQQAENLERQFGDTREAILGTLSDPKMSEEILETLMERYNKQHGTNWDKNTWAEEWAKANK,0.23
17,HMSGSILVQVSATDLNIRKGPGTNYGTTGKYTGKGTFTIVETRSGQGSNAGWGKLKSGAGWISLDYAKR,-1.38
18,HMSGTESMIEGRGEARTAIDGEGKVFFQGEYWTAQSDQFIPQGAKVRIKKVEGLNLIVEEIK,0.0805
19,HMSGTYIVTVQANTLDIYKSMTSNDTIGKANKGDVFQILEDMGGGYAKVSYNDVEGYISIKDGDTSIDEM,-0.23
20,HMSGVIVPDIYNKTLAEAVASLEGEGFSTEKKEGYSDTVPKGNVMSQKPEAGTSAERGSTVTITISQGPQ,-0.0107
21,HMSGWIATGTATSTGNDVRVRSTPDATVNNNILLTLNKGNRFEIDGQTQNGFYHIKVNDTIGWISGLYVKE,-0.499
22,HMSGYFSDKKLNELFEQYLIMREKKGKPVVGYQLKILIDRLNQVAANTKEKIEVVSNAIAGDWNTFYPIKR,-0.621
23,HMSHDTLVYRLAQMLVKLNQGEKLDPQQLAEEFGVNLRTIQRDLNVRFAYLQLEKTDGRYHLDPTFL,-0.999
24,HMSHLTKKQEEVLLFIRDYYEEEGRSPSYSDIQHHFGLKSKSSVQDYIGYLKKAGFLQKSVGSRAIELV,-2.05
25,HMSHQIIIVAVELDPSTERIVYYLSKNGISINVLFFKVFQHGDEQFLSRVWLIDPSETQTNAALA,-0.466
26,HMSIESMVGRFGVVTKDVVANEMAGKVKVGREEFRATADIAVSSGTKVKVTHAEGITLTVVPE,0.378
27,HMSIGKEATPDDIVPNIRVYHATFGYGNVIKTDGVSHDKKAVVNFDSVGEKTLLLKFAKLILPY,0.138
